For this test, the target named is T1, GST-RPS14 (UniProt P62263 1-151).
T1 construct: ribosomal protein RPS14; also called recombinant GST-RPS14
In words: pull-down; GST-RPS14 and His-hCINAP incubated in 1 ml NP-40 lysis buffer (50 mM Tris pH 8.0, 150 mM NaCl, 1% NP-40) for 2 h at 4 °C, then ATP or AMP-PNP at 1 mM with 5 mM MgCl2 for 1 h; GST beads 1 h; western blot. The following applies: both partners purified.

Data on one molecule can be found in publication PMC4974663, “The ATPase hCINAP regulates 18S rRNA processing and is essential for embryogenesis and tumour growth” (Nature Communications, 2016).

B1: His-hCINAP (enzyme)
chain: MLLPNILLTGTPGVGKTTLGKELASKSGLKYINVGDLAREEQLYDGYDEEYDCPILDEDRVVDELDNQMREGGVIVDYHGCDFFPERWFHIVFVLRTDTNVLYERLETRGYNEKKLTDNIQCEIFQVLYEEATASYKEEIVHQLPSNKPEELENNVDQILKWIEQWIKDHNS
notes: also called His6-hCINAP
B1: the binding result is “binds”.
